Biological target: T1, human α1A-adrenergic receptor (human, UniProt P35348 1-466)
T1 construct: Expressed in CHO-K1 cells either alone (α1A cells) or together with CRELD1α (α1L cells); also called ADRA1A; α1A-subtype
T1 sequence: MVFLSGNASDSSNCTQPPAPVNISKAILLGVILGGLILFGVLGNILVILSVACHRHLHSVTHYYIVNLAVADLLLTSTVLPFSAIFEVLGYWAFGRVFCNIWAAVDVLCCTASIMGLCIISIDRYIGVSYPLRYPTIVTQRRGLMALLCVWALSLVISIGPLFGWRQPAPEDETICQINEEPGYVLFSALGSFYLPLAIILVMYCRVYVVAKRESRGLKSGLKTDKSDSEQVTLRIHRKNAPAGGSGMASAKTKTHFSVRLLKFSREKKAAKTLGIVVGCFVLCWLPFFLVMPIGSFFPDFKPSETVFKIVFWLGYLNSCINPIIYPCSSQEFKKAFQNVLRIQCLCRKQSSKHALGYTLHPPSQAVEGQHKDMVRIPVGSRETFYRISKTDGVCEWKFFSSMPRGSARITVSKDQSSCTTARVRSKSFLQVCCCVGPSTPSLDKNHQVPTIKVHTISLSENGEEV
Assay: method not described; told in the description only

binding result: binds
B1: CRELD (cysteine-rich with EGF-like domains) 1α protein (other)
chain: QPSPPPQSSPPPQPHPCHTCRGLVDSFNKGLERTIRDNFGGGNTAWEEENLSKYKDSETRLVEVLEGVCSKSDFECHRLLELSEELVESWWFHKQQEAPDLFQWLCSDSLKLCCPAGTFGPSCLPCPGGTERPCGGYGQCEGEGTRGGSGHCDCQAGYGGEACGQCGLGYFEAERNASHLVCSACFGPCARCSGPEESNCLQCKKGWALHHLKCVDIDECGTEGANCGADQFCVNTEGSYECRDCAKACLGCMGAGPGRCKKCSPGYQQVGSKCLDVDECETEVCPGENKQCENTEGGYRCICAEGYKQMEGICVKEQIPESAGFFSEMTEDELVVLQQMFFGIIICALATLAAKGDLVFTAIFIGAVAAMTGYWLSERSDRVLEGFIKGR
notes: The whole coding region was used; No signal peptide limits are stated; also called CRELD1α; CREDL1α
